Values belong to the binder of their own block, whether it stands above or below them.
Key:
6A = assay: size exclusion chromatography, self-association
6E = assay: size exclusion chromatography, self-association
6D = assay: size exclusion chromatography, self-association
6C = assay: size exclusion chromatography, self-association
pda8d [1] = assay: sedimentation equilibrium, monomer-dimer-tetramer model; monomer-to-dimer self-association
pda8d [2] = assay: sedimentation equilibrium, monomer-dimer-tetramer model; dimer-to-tetramer self-association
6F = assay: size exclusion chromatography, self-association
6B = assay: size exclusion chromatography, self-association

B1: 6A (peptide)
peptide: RMEKLEDKVRELLRKNRRLEEEVRRLKELVGER
modifications: not checked
oligomerization state (N) (6A): 2

B4: 6C (peptide)
peptide: RMARLEAKVAALLAKNRRLEREVARLKALVGER
modifications: not checked
oligomerization state (N) (6C): 2

B7: 6B (peptide)
peptide: RMEKLEQKVKELLRKNERLEEEVERLKQLVGER
modifications: not checked
oligomerization state (N) (6B): 2

Other lines, results leading:

oligomerization state (N) (6E): 2
B2: 6E (peptide)
peptide: RMNTLERKVAKLLSKNANLEHEVNTLKQLVGER
modifications: not checked

oligomerization state (N) (6D): 2
B3: 6D (peptide)
peptide: RMRELEEKVRRLLRKNEDLEREVKRLKELVGER
modifications: not checked

Kd (pda8d [1]): 0.5 to 1.5 mM
Kd (pda8d [2]): > 4 mM
B5: pda8d (peptide)
peptide: KPYTARIKGRTFSNEKELRDFLETFTGR
modifications: not checked

oligomerization state (N) (6F): 4
B6: 6F (peptide)
peptide: RMAALEAKVAALLAKNAALEAEVAALKALVGER
modifications: not checked

Source: patent publication US6950754
